The values below are quoted from earlier work in article PMC7369927.

Read-outs that look alike come from different tables or passages of the source.

Data set [1] has as its target AT1 receptor (UniProt P30556).
The target of data set [2] is AT1 receptor (UniProt P30556). This is another data set of the same source.

UniProt P30556, sequence (P30556 whole entry): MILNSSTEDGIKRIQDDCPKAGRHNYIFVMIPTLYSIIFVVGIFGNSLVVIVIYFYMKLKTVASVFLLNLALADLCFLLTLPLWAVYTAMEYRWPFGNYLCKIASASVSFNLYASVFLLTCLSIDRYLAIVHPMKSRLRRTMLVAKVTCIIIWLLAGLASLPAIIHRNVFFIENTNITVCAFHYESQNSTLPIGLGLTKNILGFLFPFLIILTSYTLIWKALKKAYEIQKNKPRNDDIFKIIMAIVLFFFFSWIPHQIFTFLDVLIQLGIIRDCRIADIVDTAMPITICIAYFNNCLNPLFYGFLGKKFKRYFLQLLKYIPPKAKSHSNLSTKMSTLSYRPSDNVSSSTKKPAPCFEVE

Take Ang II (from UniProt P01019): in the data set with AT1 receptor [1], the Kd (commonly the equilibrium constant for the complex coming apart) was 2 nM.
Consider Ang-(1-7) (from UniProt P01019), for which, in the data set with AT1 receptor [2], the Kd was 200 nM.
